Reference: US20100068151A1 (published 2010)

Biological target: T1, VEGFR-2 expressed on PAE/KDR cells (human, UniProt P35968 20-1356)
T1 construct: whole, on cells
Assay: cell-binding assay, displacement of 125I-VEGF165 from PAE/KDR cells

T1 sequence (P35968 20-1356): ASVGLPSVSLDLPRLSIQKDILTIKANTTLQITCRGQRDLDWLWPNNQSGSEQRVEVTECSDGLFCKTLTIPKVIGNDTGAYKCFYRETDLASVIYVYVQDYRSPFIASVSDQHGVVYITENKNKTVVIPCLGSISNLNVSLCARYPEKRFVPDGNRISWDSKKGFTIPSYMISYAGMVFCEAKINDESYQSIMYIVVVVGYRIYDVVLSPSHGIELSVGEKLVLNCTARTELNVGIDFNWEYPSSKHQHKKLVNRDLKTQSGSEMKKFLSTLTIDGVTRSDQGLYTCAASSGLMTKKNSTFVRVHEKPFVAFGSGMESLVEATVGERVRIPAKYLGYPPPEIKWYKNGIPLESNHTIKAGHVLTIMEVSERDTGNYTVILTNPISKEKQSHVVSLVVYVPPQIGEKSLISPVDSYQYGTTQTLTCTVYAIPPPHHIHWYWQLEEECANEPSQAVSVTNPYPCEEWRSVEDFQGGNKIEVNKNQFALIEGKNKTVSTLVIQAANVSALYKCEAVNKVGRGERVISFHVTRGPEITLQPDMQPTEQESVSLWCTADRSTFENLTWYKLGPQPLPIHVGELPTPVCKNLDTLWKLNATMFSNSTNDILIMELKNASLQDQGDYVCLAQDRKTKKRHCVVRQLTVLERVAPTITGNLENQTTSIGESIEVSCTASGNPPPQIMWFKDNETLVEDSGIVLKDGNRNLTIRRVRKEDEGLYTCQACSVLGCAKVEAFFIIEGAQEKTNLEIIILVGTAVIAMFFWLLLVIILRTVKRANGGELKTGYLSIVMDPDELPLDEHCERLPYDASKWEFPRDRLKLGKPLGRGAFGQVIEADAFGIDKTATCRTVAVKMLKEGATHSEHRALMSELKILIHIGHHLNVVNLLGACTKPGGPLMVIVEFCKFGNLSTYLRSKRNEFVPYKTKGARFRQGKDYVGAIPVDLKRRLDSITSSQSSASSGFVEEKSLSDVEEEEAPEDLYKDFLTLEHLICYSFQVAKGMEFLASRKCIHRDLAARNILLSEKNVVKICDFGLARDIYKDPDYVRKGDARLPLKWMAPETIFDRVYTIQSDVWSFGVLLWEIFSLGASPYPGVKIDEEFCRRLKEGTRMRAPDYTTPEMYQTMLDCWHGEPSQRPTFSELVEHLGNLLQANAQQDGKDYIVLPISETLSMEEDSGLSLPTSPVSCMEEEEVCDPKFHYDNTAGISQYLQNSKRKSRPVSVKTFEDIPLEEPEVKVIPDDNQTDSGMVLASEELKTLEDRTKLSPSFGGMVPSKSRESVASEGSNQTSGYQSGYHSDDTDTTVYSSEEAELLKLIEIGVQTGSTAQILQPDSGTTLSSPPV

B1: VEGF121/rGel fusion toxin (other)
chain: APMAEGGGQNHHEVVKFMDVYQRSYCHPIETLVDIFQEYPDEIEYIFKPSCVPLMRCGGCCNDEGLECVPTEESNITMQIMRIKPHQGQHIGEMSFLQHNKCECRPKKDRARQEKCDKPRRGGGGSGLDTVSFSTKGATYITYVNFLNELRVKLKPEGNSHGIPLLRKKCDDPGKCFVLVALSNDNGQLAEIAIDVTSVYVVGYQVRNRSYFFKDAPDAAYEGLFKNTIKTRLHFGGSYPSLEGEKAYRETTDLGIEPLRIGIKKLDENAIDNYKPTEIASSLLVVIQMVSEAARFTFIENQIRNNFQQRIRPANNTISLENKWGKLSFQIRTSGANGMFSEAVELERANGKKYYVTAVDQVKPKIALLKFVDKDPK
notes: Described as an 84-kDa fusion protein made as in Veenendaal et al., 2002; also called vasculature-targeting fusion protein
Question: How did the IC50 turn out when B1 was run?
Answer: Its IC50 is 24.5 nM.

B2: DOTA-VEGF121/rGel conjugate (other)
chain: B1 chain
modifications: DOTA chelator conjugated, 3.3±0.1 DOTA molecules per VEGF121/rGel molecule; sites not stated
Question: B2 was tested. Which IC50 did it give?
Answer: The IC50 was 40.6 nM.
